The results in this text go back to patent US20250277199, “NOVEL CRISPR-CAS NUCLEASES FROM METAGENOMES” (Brain Biotech AG, published 2025).

This data set addresses T1, BMC14 (uncultured bacterium (metagenome)).
T1 chain: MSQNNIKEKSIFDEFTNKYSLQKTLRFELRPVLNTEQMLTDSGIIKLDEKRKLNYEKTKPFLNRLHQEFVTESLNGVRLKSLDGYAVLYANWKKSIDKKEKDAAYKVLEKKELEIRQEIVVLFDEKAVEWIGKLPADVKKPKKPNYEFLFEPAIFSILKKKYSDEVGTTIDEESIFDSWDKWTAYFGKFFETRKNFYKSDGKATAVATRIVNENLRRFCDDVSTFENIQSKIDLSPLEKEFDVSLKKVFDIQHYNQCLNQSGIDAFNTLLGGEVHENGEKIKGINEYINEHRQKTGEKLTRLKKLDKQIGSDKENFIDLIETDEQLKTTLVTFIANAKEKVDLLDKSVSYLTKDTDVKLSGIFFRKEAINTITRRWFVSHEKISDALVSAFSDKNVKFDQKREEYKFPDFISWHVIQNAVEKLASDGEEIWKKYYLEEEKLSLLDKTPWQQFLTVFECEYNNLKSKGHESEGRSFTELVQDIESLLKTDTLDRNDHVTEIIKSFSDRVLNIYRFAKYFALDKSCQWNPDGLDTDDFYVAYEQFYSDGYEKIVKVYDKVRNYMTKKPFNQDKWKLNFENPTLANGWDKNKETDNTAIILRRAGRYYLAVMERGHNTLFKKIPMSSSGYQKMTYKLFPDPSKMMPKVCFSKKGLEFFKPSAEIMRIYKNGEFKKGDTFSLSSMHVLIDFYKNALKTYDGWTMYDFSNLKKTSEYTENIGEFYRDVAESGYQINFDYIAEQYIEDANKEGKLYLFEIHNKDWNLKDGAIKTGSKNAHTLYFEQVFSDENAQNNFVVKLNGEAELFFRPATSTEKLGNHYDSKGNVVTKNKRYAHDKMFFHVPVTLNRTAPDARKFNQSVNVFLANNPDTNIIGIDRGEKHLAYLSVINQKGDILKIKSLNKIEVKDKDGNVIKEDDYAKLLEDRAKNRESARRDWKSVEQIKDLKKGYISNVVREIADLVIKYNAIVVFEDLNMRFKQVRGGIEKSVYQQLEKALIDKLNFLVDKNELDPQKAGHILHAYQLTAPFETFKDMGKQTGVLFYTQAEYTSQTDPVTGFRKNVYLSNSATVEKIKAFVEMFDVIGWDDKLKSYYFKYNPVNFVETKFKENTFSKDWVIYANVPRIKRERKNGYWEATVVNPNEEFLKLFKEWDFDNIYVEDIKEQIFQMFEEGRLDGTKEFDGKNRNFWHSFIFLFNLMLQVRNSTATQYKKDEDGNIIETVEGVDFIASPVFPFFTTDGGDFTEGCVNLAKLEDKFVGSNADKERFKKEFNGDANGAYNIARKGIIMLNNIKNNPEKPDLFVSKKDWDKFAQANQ
In words: cell_activity; PAM not stated; E. coli depletion, 30 C. The essentials: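 E. coli carrying arabinose-induced (0.2%) BMC nuclease, grown at 30° C., made electrocompetent and electroporated with 50-100 ng plasmid carrying gRNA against malQ. Transformants plated on selective M9-glucose agar with kanamycin/ampicillin (± nourseothricin), and growth scored after 48 h at 30° C.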

B1: malQ gRNA (BMC stem-loop + 24 nt spacer) ; malQ protospacer (ssRNA ; dsDNA)
RNA: GAUUUCUACUAUUGUAGAUGUGGCGGUACGUUGAUGCAUCGCG
DNA 1: GTGGCGGTACGTTGATGCATCGCG
DNA 2: CGCGATGCATCAACGTACCGCCAC
For the molecule B1, the activity was above 99.9 % colony reduction.
